Measured values from patent US20020081293A1.

Experiments:
[1] = target: dog factor D (in serum) (dog); experiment: cell-based or functional assay; settings: scale: times less effective than on human factor D
[2] = target: human factor D purified from human serum (human) (UniProt P00746); experiment: cell-based or functional assay
[3] = target: human factor D purified from human serum (human) (UniProt P00746); experiment: SPR (BIAcore), factor D amine-coupled to the chip, MAb 166-32 as analyte
[4] = target: human factor D purified from human serum (human) (UniProt P00746); experiment: SPR (BIAcore), MAb captured by rabbit anti-mouse IgG, factor D as analyte

Sequence of UniProt P00746 (P00746 26-253): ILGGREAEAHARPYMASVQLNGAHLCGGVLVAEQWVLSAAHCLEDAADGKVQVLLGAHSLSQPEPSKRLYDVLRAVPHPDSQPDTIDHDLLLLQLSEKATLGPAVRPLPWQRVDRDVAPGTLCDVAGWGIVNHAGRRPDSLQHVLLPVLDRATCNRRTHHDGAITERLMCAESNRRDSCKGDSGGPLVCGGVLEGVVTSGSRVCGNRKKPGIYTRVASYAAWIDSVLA

molar ratio for complete inhibition of alternative complement activity in extracorporeal circuit plasma (18 µg/ml MAb) (molar ratio (MAb : factor D)) [2]: 1.5
Kd [3]: 0.16 nM
koff [3]: 7.6e-05 s⁻¹
kon [3]: 460000 M⁻¹ s⁻¹
Kd [4]: < 0.1 nM
koff [4]: 0.00011 s⁻¹
kon [4]: > 1e+06 M⁻¹ s⁻¹
Substance: monoclonal antibody 166-32
neutralization of dog factor D in hemolytic assays, against human factor D [1]: 10
inhibition of factor D dependent hemolysis of unsensitized rabbit RBCs (factor D depleted human serum with 0.1 µg/ml supplemented factor D) [2]: 0.3 µg/mL
molar ratio for inhibition of factor D dependent hemolysis (molar ratio (MAb 166-32 to factor D)) [2]: 0.5
